From article PMC3828642, “1-Aminocyclopropane-1-carboxylic acid oxidase reaction mechanism and putative post-translational activities of the ACCO protein” (AoB Plants, 2013)
“And” between values parts separate entries of the source, which are not always exact repeats. Equal values may be shown once.

Target: 1-Aminocyclopropane-1-carboxylic acid (ACC) oxidase ACCO1 from apple (Malus domestica), His-Tag fusion protein (apple (Malus domestica))
Experiment: SEC; Sephadex G-200 column chromatography; activity of the monomer, dimer and tetramer forms; data not shown

stoichiometry N: 2 and 4
Substance: 1-Aminocyclopropane-1-carboxylic acid (ACC) oxidase ACCO1 from apple (Malus domestica), His-Tag fusion protein (enzyme)
